Test results reported in US20100093618A1 (published 2010).
Residue numbers refer to the chain shown, from its start.

B1: GST-Tat (other)
chain: MEPVDPRLEPWKHPGSQPKTACTNCYCKKCCFHCQVCFITKALGISYGRKKRRQRRRAHQNSQTHQASLSKQPTSQPRGDPTGPKE
notes: also called GST-Tat fusion protein from pGEX-2T-Tat; not shown: glutathione S-transferase (GST) encoded by pGEX-2T
B2: FLAG-Tat R(49-57)A (p3XFLAG-CMV-Tat R(49-57)A) (other)
chain: B1 chain with R49A, R52A, R53A, R55A, R56A, R57A
B3: FLAG-Tat (p3XFLAG-CMV-Tat, wild type) (other)
chain: B1 chain
notes: Expressed in transfected HeLa cells (or MEFs); also called wild type Tat
B4: FLAG-Tat C(22,25,27)A (p3XFLAG-CMV-Tat C(22,25,27)A) (other)
chain: B1 chain with C22A, C25A, C27A
notes: Expressed in transfected HeLa cells
B5: [35S]methionine-labeled IκB-α 120-317 (in vitro translated) (other, UniProt P25963 120-317, looked up)
chain: ITNQPEIAEALLGAGCDPELRDFRGNTPLHLACEQGCLASVGVLTQSCTTPHLHSILKATNYNGHTCLHLASIHGYLGIVELLVSLGADVNAQEPCNGRTALHLAVDLQNPDLVSLLLKCGADVNRVTYQGYSPYQLTWGRPSTRIQQQLGQLTLENLQMLPESEDEESYDTESEFTEFTEDELPYDDCVFGGQRLTL
modifications: [35S]methionine label
notes: Translated in vitro from pcDNA3
B6: [35S]methionine-labeled IκB-α 72-287 (in vitro translated) (other)
chain: EDGDSFLHLAIIHEEKALTMEVIRQVKGDLAFLNFQNNLQQTPLHLAVITNQPEIAEALLGAGCDPELRDFRGNTPLHLACEQGCLASVGVLTQSCTTPHLHSILKATNYNGHTCLHLASIHGYLGIVELLVSLGADVNAQEPCNGRTALHLAVDLQNPDLVSLLLKCGADVNRVTYQGYSPYQLTWGRPSTRIQQQLGQLTLENLQMLPESEDEE
modifications: [35S]methionine label
B7: [35S]methionine-labeled IκB-α 72-287 L(272,274,277)A (in vitro translated) (other, UniProt P25963 72-287, looked up)
chain: B6 chain with L201A, L203A, L206A
modifications: [35S]methionine label
notes: range 72-287
B8: [35S]methionine-labeled IκB-α 243-317 (in vitro translated) (other, UniProt P25963 243-317, looked up)
chain: VNRVTYQGYSPYQLTWGRPSTRIQQQLGQLTLENLQMLPESEDEESYDTESEFTEFTEDELPYDDCVFGGQRLTL
modifications: [35S]methionine label
notes: as for B5

What was measured:
[1] = molecular target: T1, [35S]methionine-labeled IκB-α 1-263 (in vitro translated) (UniProt P25963 1-263, [35S]methionine label); assay: GST-Tat pulldown of [35S]-labeled in vitro translated protein, autoradiography
T1 construct: Translated in vitro from pcDNA3
T1 sequence (looked up): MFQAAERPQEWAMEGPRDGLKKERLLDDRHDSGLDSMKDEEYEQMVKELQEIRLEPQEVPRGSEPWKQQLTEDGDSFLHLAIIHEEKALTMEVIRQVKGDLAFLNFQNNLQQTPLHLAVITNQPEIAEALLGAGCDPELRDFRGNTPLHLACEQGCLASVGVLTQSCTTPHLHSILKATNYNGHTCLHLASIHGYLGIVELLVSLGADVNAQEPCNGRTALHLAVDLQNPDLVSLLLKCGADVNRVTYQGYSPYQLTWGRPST
Description: (§1) The pcDNA3 plasmids expressing the IκB genes under the T7 promoter were used as templates to translate in vitro the [³⁵S]methionine-labeled IκB proteins by using the TNT Quick Coupled transcription/translation systems (Promega). Aliquots (10 μl) of translation mixture were incubated with GST-Tat or GST proteins (10 μg) in 500 μl of binding buffer supplemented with 1 μg/μl of bovine serum albumin on a rocking platform for 3 h at room temperature.

[2] = molecular target: T2, FLAG-p100 (in vitro translated) (human, UniProt Q00653 1-900); assay: GST-Tat pulldown of in vitro translated protein, anti-FLAG Western blot
T2 sequence: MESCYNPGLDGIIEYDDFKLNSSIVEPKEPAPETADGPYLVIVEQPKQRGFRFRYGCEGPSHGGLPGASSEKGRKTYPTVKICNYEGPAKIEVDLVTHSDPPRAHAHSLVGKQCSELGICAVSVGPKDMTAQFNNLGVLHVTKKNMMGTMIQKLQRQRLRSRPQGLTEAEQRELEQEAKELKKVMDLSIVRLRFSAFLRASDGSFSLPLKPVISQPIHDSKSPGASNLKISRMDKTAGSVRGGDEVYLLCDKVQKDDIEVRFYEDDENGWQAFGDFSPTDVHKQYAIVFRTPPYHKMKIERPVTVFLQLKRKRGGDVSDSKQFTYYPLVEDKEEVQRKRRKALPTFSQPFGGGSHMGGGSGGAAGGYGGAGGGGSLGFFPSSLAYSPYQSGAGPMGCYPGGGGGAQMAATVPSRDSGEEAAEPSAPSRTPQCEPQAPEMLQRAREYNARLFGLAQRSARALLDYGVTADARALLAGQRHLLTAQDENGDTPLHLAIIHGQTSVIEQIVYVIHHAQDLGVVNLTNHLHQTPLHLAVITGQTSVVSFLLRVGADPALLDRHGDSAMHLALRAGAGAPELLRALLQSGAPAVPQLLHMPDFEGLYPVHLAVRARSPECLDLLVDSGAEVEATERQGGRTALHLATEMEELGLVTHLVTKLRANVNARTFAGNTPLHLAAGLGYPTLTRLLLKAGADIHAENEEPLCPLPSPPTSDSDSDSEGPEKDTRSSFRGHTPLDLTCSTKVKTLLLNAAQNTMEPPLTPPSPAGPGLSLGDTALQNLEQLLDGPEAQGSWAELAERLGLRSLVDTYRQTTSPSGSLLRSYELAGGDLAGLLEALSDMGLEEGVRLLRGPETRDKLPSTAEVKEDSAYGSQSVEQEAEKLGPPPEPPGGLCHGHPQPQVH
Description: (§2) The proteins were resolved on 10% SDS-PAGE, transferred to polyvinylidene difluoride membranes, and analyzed by immunoblotting with the indicated antibodies. The pcDNA3 plasmids expressing the IκB genes under the T7 promoter were used as templates to translate in vitro the [³⁵S]methionine-labeled IκB proteins by using the TNT Quick Coupled transcription/translation systems (Promega). Aliquots (10 μl) of translation mixture were incubated with GST-Tat or GST proteins (10 μg) in 500 μl of binding buffer supplemented with 1 μg/μl of bovine serum albumin on a rocking platform for 3 h at room temperature.

[3] = molecular target: T3, p105 (in vitro translated) (human, UniProt P19838 1-968); assay: GST-Tat pulldown of in vitro translated protein, anti-p105 Western blot
T3 sequence: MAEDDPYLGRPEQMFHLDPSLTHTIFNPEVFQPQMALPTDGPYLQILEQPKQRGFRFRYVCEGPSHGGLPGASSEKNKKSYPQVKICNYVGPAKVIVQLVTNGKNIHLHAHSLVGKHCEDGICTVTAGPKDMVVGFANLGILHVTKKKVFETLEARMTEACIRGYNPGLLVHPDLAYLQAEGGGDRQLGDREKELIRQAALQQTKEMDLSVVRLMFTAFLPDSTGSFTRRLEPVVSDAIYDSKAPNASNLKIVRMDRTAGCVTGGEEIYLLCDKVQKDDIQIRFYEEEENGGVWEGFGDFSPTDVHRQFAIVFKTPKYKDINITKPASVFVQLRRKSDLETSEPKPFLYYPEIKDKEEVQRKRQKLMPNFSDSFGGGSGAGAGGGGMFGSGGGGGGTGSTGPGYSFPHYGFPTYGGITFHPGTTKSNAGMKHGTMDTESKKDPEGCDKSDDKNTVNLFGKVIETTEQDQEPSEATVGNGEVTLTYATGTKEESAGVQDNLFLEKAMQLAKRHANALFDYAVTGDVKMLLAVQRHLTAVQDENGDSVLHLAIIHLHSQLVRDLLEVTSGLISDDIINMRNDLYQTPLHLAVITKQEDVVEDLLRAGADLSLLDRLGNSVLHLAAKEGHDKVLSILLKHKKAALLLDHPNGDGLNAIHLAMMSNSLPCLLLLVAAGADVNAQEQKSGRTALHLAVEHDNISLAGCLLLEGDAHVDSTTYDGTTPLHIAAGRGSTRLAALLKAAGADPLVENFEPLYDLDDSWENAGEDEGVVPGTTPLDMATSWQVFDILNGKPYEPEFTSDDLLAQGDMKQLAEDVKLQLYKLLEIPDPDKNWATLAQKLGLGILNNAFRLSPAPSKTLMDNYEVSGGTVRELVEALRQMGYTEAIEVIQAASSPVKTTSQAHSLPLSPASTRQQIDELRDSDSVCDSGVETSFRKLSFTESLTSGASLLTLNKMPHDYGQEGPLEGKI
Description: as §2

[4] = molecular target: T4, GST-IκB-α (UniProt P25963 1-317); assay: GST-IκB-α pulldown from extracts of transfected HeLa cells, anti-FLAG Western blot
T4 construct: also called pGEX-2T-IκB-α product; not shown: glutathione S-transferase (GST) encoded by pGEX-2T
T4 sequence: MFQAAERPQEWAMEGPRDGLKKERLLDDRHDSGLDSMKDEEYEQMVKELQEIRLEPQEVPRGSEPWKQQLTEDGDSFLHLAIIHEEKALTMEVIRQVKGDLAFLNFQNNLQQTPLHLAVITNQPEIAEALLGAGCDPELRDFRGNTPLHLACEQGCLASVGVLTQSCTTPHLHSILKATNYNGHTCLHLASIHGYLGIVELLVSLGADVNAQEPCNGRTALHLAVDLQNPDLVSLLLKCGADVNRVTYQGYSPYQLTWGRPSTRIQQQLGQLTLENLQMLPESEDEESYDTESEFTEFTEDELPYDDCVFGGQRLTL

[5] = molecular target: T5, GST (UniProt P08515 1-218 = GST); assay: GST pulldown from extracts of transfected HeLa cells, anti-FLAG Western blot
T5 construct: Negative control in the pulldowns; also called GST protein; GST alone

[6] = molecular target: T5, GST; assay: GST pulldown of [35S]-labeled in vitro translated protein, autoradiography
Description: as §1

T5 sequence (P08515 whole entry): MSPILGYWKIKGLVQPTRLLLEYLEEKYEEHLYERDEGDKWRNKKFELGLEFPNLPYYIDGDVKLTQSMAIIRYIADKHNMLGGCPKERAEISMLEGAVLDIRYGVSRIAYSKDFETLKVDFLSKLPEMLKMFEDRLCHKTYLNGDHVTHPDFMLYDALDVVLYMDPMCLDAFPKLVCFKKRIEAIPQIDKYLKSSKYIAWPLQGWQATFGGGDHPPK

Row | Binder | binding result [5] | binding result [6] | also measured
1 | B1 | – | – | binding result [1]: no binding; binding result [2]: no binding; binding result [3]: no binding
2 | B2 | no binding | – | binding result [4]: no binding
3 | B3 | no binding | – | –
4 | B4 | no binding | – | –
5 | B5 | – | no binding | –
6 | B6 | – | no binding | –
7 | B7 | – | no binding | –
8 | B8 | – | no binding | –
